From patent publication US20110287023A1 (AstraZeneca / MedImmune, published 2011)

Legend:
[1] = molecular target: T1, HMG1 purified from calf (bovine) thymus (bovine, UniProt P10103 2-215); assay: blocking ELISA: thymus HMGB1 pre-incubated with the antibody, then added to coated RAGE/Fc (blocked partner: RAGE/Fc); one bar per antibody, the antibody's concentration is not given
T1 construct: also called Calf thymus HMGB1; thymus HMG1
T1 sequence (looked up): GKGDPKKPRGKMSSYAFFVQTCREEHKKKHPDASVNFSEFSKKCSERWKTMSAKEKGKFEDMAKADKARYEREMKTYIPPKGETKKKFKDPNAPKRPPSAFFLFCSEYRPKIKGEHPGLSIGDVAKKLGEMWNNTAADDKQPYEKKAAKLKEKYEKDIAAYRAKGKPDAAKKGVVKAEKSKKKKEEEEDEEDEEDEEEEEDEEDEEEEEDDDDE
Procedure: HMG1 binding to RAGE-Ig by ELISA: 50 μl/well of RAGE-Fc fusion protein at 5 μg/ml in PBS was added to each well of an ELISA plate and incubated overnight at 4° C. The plate was then blocked with 200 μl of 5% milk at 37° C. for 1 hr and washed 3× with PBS/Tween. 50 μl/well of diluted HMGB1 solution. For dose curves, HMGB1 concentrations started at 4 ug/ml in PBS. For antibody blocking the HMGB1 was preincubated in another plate with human anti-HMG1 antibodies or buffer, then transferred to the RAGE-coated plate. The plates were then incubated at room temperature for 2 hours and washed 3×. To detect any HMG1 bound to the immobilized RAGE-Fc a mixture of biotinylated mouse anti-HMG1 mAbs (10D4, 4H11, 3E10 and 5C12) each at 1 ug/ml, total Ab: 4 ug/ml, were added to each well and the plate was incubated for 1 hour at room temperature. The plate was then washed and Strepavidin-HPR was added to each well and incubated 15 min. The plate was then washed 3× and blotted dry. 100 μl of TMB developing agent was added and the plate read at 650 nm. Values were calculated as percent of inhibition with HMG1 alone equal to 0% inhibition. The data in FIG. 9 and summarized in Table 1 represent the average of two separate experiments.

[2] = molecular target: T2, nuclear HMGB1 in fixed HUVEC cells (UniProt P09429 1-215, limits assumed); assay: immunofluorescence on fixed HUVEC, anti-human IgG-FITC; paragraph 81 gives the lower panels as G4
T2 construct: whole, on cells; immunostaining
T2 sequence (looked up): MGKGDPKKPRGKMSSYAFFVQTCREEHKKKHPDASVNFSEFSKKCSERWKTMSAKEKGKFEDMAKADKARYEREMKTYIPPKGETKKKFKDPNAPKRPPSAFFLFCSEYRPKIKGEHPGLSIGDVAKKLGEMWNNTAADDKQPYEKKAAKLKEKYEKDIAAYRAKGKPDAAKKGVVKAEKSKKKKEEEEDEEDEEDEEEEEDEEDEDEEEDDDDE
Procedure: (§1) Immunofluorescence: Intracytoplasmic (ic) HMGB1 was quantitated by direct immunofluorescence. HUVEC were harvested by trypsin-EDTA treatment and seeded on a glass coverslip. Once the cells are settled, they were stimulated with 0.2 μg/ml of LPS (Sigma) for 4 hours. The cells were fixed in 2% paraformaldehyde for 15 min and then permeabilized in 0.2% Triton X-100 for 2 min. Fixed and permeabilized cells were incubated with anti-HMGB1 antibodies at 1 μg/ml for 1 hour at room temperature. Cells were then washed to remove excess or nonspecifically bound primary antibody followed by incubation with anti human IgG conjugated with fluorescence (Pierce). The sections were mounted with fluoromount (Southern Associates, Birmingham, Ala.), and the images were processed with a Nikon microscope (Japan) and a SPOT imaging system (Diagnostic Instrument).

[3] = molecular target: T3, actively secreted HMGB1 of LPS treated HUVEC cells (UniProt P09429 1-215, limits assumed); assay: immunofluorescence on fixed LPS treated HUVEC, anti-human IgG-FITC; paragraph 81 gives the lower panels as G4
T3 construct: whole, on cells; immunostaining
T3 sequence (looked up): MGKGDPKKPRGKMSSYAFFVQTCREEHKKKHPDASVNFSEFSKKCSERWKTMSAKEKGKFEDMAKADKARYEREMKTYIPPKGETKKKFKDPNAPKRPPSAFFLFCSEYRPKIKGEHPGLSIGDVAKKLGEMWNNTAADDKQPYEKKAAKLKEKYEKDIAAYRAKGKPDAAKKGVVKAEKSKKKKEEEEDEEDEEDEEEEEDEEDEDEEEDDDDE
Procedure: as §1

[4] = molecular target: T4, HMGB1 in joint lysate of adjuvant induced arthritis (AIA) rats (rat, UniProt P63159 2-215); assay: immunoprecipitation from AIA rat joint lysate, Western blot; paragraph 81 gives lane 2 as S16
T4 construct: also called HMGB1 from arthritis joints; joint lysate HMGB1
T4 sequence (looked up): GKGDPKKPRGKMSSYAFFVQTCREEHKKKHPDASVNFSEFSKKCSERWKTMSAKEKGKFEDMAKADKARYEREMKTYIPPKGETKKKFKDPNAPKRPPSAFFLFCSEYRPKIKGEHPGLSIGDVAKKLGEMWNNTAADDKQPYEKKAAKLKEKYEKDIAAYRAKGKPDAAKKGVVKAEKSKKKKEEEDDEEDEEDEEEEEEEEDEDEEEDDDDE
Procedure: Immunoprecipitation and Western Blot: Anti-HMGB1 mAbs (G4 and S6) and isotype control were first biotinylated using EZ-Link Sulfo-NHS-LC-Biotin as instructed by the manufacturer (Pierce). After labeling, the mAb was tested for binding to HMGB1 by ELISA with unlabeled mAbs as controls. The biological samples, joint lysate (30 μl), was mixed with […] biotinylated G4, S6 or isotype control overnight at 4° C. in 300 μl IP buffer [containing 1×PBS, pH 7.2 (Invitrogen), 0.1% Tween 20, 0.5 M sodium chloride, 10 mM sodium butyrate, and a 1:100 dilution of Phosphatase Inhibitor Cocktail I (Sigma)]. For sepsis sera, Tween 20, sodium chloride, sodium butyrate, and Phosphatase Inhibitor Cocktail I were added to 500 μl sera with the same final concentration as IP buffer. Streptavidin Sepharose beads (GE Healthcare) were blocked in 4% BSA-PBS overnight at 4° C., then washed three times with PBS and resuspended in 1×PBS resulting in 50% slurry. The bead slurry (60 μl) was then added to the overnight mAb/sample mixture and mixed for 20 minutes at room temperature. The beads were washed once with PBS, five times with IP Buffer and then washed twice with PBS by spinning at 1000 g for two min. […] The bands were detected by LumiGlo substrate solution (KPL) after washing.

B1: human anti-HMG1 antibody E11 (antibody, IgG1, V domains shown)
VH: EVQLLESGGGLVQPGGSLRLSCAASGFTFSRYQMNWVRQAPGKGLEWVSSISPSGGHTHYADSVKGRFTISRDNSKNTLYLQMNSLRAEDTAVYYCAKDGRQGKISTVDHWGQGTLVTVSS
VL: DIQMTQSPGTLSLSPGERATLSCRASQSVRSNFLAWYQQKPGQAPRLLIYGASRRASGIPDRFSGSGFGADFTLSISRLEPEDFAVYYCQQYGSSPNTFGQGSRVEIK
notes: full length IgG1 made from a human Fab phage clone
[1]
  binding result: binds

B2: human anti-HMG1 antibody G4 (antibody, IgG1, V domains shown)
VH: EVQLLESGGGLVQPGGSLRLSCAASGFTFSWYDMTWVRQAPGKGLEWVSSISPSGGYTKYADSVKGRFTISRDNSKNTLYLQMNSLRAEDTAVYYCTTEFYDYLDVWGKGTTVTVSS
VL: DIQMTQSPGTLSLSPGEGATLSCRASQSVSSTYLAWYQQKPGQAPRLLIYEASKRATGTPARFSGSGSGTDFTLSISSLEPEDFAVYYCQHRHNWPPQWTFGQGTKVEVK
notes: full length IgG1 made from a human Fab phage clone; also called ATCC PTA-6258
[2]
  binding result: binds
[3]
  binding result: binds

B3: human anti-HMG1 antibody S16 (antibody, IgG1, V domains shown)
VH: EVQLLESGGGLVQPGGSLRLSCAASGFTFSWYSMLWVRQAPGKGLEWVSYISPSGGFTNYADSVKGRFTISRDNSKNTLYLQMNSLRAEDTAVYYCARWDYNSGWYYDHWGQGTLVTVSS
VL: DIQMTQSPDTLSLSPGERATLSCRASQSVNSRNLAWYQQKPGQAPRLLIYGASTRATGIPDRFSGSVSGTEFTLTISSLQPDDFATYYCQQYNSYFTFGQGTKLEIK
notes: full length IgG1 made from a human Fab phage clone; also called ATCC PTA-6259
[4]
  binding result: binds
